Test: yeast display, Sf9 membrane polyspecificity reagent, FACS + sequencing; frameworks hold sequencing errors
How it was run: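 After 36–48 hours of galactose induction, yeast (Saccharomyces cerevisiae BJ5465) displaying a synthetic nanobody library were stained at 4 °C for 1 hour with 10% biotinylated, detergent-solubilized Sf9 membrane reagent. Streptavidin microbeads enriched the stained cells before FACS sorting into low and high (top ~1%) gates on anti-HA and streptavidin fluorescence. Each clone's polyreactivity label reflects its gate of origin.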

Sequence | polyreactivity (PSR sort gate)
QVQLVESGGGLVQARGSLRLSCAASGFIFASNAMGWYRQAPGKERELVAAITKSGGRTYYADSVKARFTISRDTAKNTVYLQMNSLKPVDTAVYYCAAKVRVVHRPYDHWGQGTQVTVSS | high polyreactivity
QVQLVESGGGLVQAGGSLRLSCAASGIIFIGYAMGWYSQAPGKERELVAAISTRGSTTNYADSVKGRFTISRDNAKNTVYLQMNSLKPEDTAVYYCAARKYPSYRYPTGDYWGQGTQVTVSS | high polyreactivity
QVQLVESGGGLVQAGGSLRLSCAASGSIFGAYAMGWYRQAPGKERELVATITLRDGSTYYADSVKGRFTISRDNAKNTVYLQMNSLKPEDTAVSYCATYYSAINYGWSKTILYDYWGQGTQVTVSS | low polyreactivity
QVQLVESRGGLVQAGGSLRLSFAASGSTFIKNAMGWYRQAPGKEWELVAAITSGGSRSYADSVKGRFTISRDNAKNTVYLQMNSLKPEDTAVYYCATDHDIGYNFYRYDYWGQGTQVTVSS | low polyreactivity
QVQLVESGGGLVHAGGSLRLSCAASGRIFNYYAMGWYRQAPGKERALVAAISSGGSTYYADSEKGRFTISRDNAKNTVYLQMHSLKPEDTAVDYCNRVPRGVSRQDDYWGQGTQVTVSS | high polyreactivity
QVQLVESGGGLLQAGGSLRLSCADSGYTFRAYALGWYRQAPGKERELVAAISRGGSTNYADSVKGRFTISRDNAKNTVYLQMYSLKPEDTAVYYCNTAYIVWYSSSYGAYYSGAFDYWGQGTLVTVSS | high polyreactivity
QVQQLESAGGLVQAGGSLRLSCAASGTITVLYKMGWFRQAPGKEREFVASINYGTSTYYADSVKGRFSVSPDSAKHTVYLQMNSLNPEDTAVYYCAAAYRWQDVYRYWGLGTQVTVSS | low polyreactivity
QVQLVESGGGLVQAGGSLRLSCAASGRTFEDNAMGWYRQAPGKERELVAAISSDGSTNYADSVKGRFTISRDNAKNTVYLQMNSLKPEDTAVYYCNATVYWPYDWRTSDYWGQGTQVTVSS | low polyreactivity
QVQLVESGGGLVQAGGSLRLSCAASGCIFWKDAMGWYRQAPGKERELVAAITSGGGTYYADSVKGLFTISRDNAKNTVYLQMNSLKPEDTAVYYCAARSLSVARRRPYYYWGQGTQVTVSS | high polyreactivity
QVQLVESGGGVVQAGGSLRLSCAASRRTFTYYDMGWYRQAPGKERELVAGITARGGSTYADSVKGRFTISRDNAKNTVYLQMNSLKPEDTAVYYCAADLYTSLDSTYVYWGQGTQVTLSS | low polyreactivity
QVQLVESGGGLVQAGGSLRLSCAASGSTFTPYAMGWYRQAPGKERELVAAISSTGGITYYADSVKGRFTISRDNAKNTVYLQMNSLKPEDTAVYYCAADAYYYGYEYWGQGTQVTVSS | high polyreactivity
QVQLVESVGGLVQAGGILRLSCAPSGSTFDVYAMGWYRQAPAKERELVAAISWTGGSTYYADSVKGRFTISRDNAKNTVYLQMNRLKPEDTAVYYCAAYEIQTPRIAHYVGCGRDYLGQGTQVTVSS | high polyreactivity
QVQLVESGGGLVQAGGSLRLSCAASGSIFTAYAMGWYRQAPGKERELVAAIDDSGDSTYYADSVKGRFTISRDNAKNTVYLQMNSLKPEDTAVYYCKAEYRVNKEYDYWGQGTQVTVSS | low polyreactivity
QDQLVESGGGLVQAGGSLRLSCAASGFIFADYAMGWYRQATGKERELVAAISWGGGSTYYADSVKGRFTISRDIAKNTVYLQMNSLKPEDTAVYYCAAANPGSEYDYWGQGTQVTVSS | high polyreactivity
QVQLVESGGGLVQAGGSLRLSCAASGIIFEPNAMGWYRQAPGKERELVAAIDSGGITYYADSVKGRFTISRDNAKNTVYLEMNSLKPEDTAVYYCAKRAYTRQYWYGYGYWGQGTQVTVSS | high polyreactivity
QVQLVESGGGLGQAGGSLRLSCAASGFTFYAYVMGWYRQAPGKESELVAAISGSGSSTYYADSVKGRFTISRDNAKNTVDLEMNSLKPEDTAVYYCGAPQLYQYGGFGYWGQGTQVTVSS | high polyreactivity
QVQLQESGGGLVQAGGSLGCAASGNISTRSEMGWYRQAPGKEREFVATINSGGITNYADSVKGRFTISRDNAKNTVYLRMNSLKPEDTAVYYRAVYGDFSDPYDYWGQGTQVTVSS | low polyreactivity
QVQLGESGGGLVEAGGSLRLSCAASGSTCKFYVMGWYRQAPGKERELVAAIAIGGSTNYADSVKGRFTISRDNAKNTVSVQMNSLKPEDTAVYYCAAELLQIHYYYVYLSPSFKCDYWGQGTQVTGSS | low polyreactivity
QVQLVESGGGLVQAGGSLRLSCAASGFTLSASAMGWYRQAPGKERELVAGITYTGGRTYYADSVKGRFTISRDNAKNTVYFQMNSLKPEVTAVYYCNKAWSGYYKYGYWGQGTQVSVSS | low polyreactivity
QVQLVDSGGGLVQAGGSLRLSCAASGRTFTVYAMGWYRQAPGKERELVASISGSSGSTDYADSVKGRFTISRDNAKNTVYLQMNSLKPEDTAVYFCAKASSATRYVQLRQDYDYWGQGTQVTVSS | low polyreactivity
QVQLVESGGGLVQAGGSLRLSCAASGRIFAGYTMGWYRQAPGKERELVAAISWSGGRTYYADSVKGRFTISRDNAKYTVYLQMNSLKPEDTAVYYCNKVGWYHNYYYWGQGTQVTVSS | high polyreactivity
